Data taken from PMC12703448 (2025).
The star is where a group is joined. Farnesyl = CC(C)=CCC/C(C)=C/CC/C(C)=C/C*; FAM = fluorescein label

Biological target: T1, K-Ras4B C-terminal peptide (Homo sapiens, also: FAM-labelled)
T1 chain: {FAM}-KKKKKKSKTKC(Farnesyl)-OMe
Assay: fluorescence polarization

Kd: 0.15 µM
B1: PDE6D (protein)
chain: MSAKDERAREILRGFKLNWMNLRDAETGKILWQGTEDLSVPGVEHEARVPKKILKCKAVSRELNFSSTEQMEKFRLEQKVYFKGQCLEEWFFEFGFVIPNSTNTWQSLIEAAPESQMMPASVLTGNVIIETKFFDDDLLVSTSRVRLFYV
